The values below come from patent US20240327502A1 (Merck Sharp & Dohme, published 2024).

Experiment [1] concerns the target F protein of RSV B/Washington virus (respiratory syncytial virus B, …). The experiment is described as follows: cell-based or functional assay.
The target in experiment [2] is T1, F protein of hMPV A virus (human metapneumovirus subtype A). The experiment is described as follows: cell-based or functional assay.
The target of experiment [3] is F protein of hMPV B virus (human metapneumovirus subtype B). The experiment is described as follows: cell-based or functional assay.
The target in experiment [4] is T2, unprocessed hMPV PreF trimeric antigen (human metapneumovirus strain B2).
T2 construct: also called unprocessed hMPV WT PreF trimer; hMPV WT trimer
In words: ELISA; Ni-NTA plate coated with Expi293 supernatant containing the His-tagged antigen; antibody titrated; OD450. Background: An ELISA detects its analyte on a solid surface through an enzyme-linked reagent.

The target in a further experiment is T3, N135T G139N Y233N.
T3 construct: also called unprocessed hMPV PreF N135T/G139N/Y233N
Described as above.

For the next experiment, the target named is T4, T143K.
T4 construct: also called unprocessed hMPV PreF T143K
The description is as above.

Experiment [5] has as its target T1, F protein of hMPV A virus. In words: cell-based or functional assay. This is another data set of the same source.

B1: M1C7 (antibody, V domains shown)
VH: QVQLVESGGGLVQPGRSLRLSCAASGFTFSSYAMHWVRQAPGKGLEWVAIITYDGSGKYYADSLEGRITISRDDPKSMLYLHMRSLTAEDTAVYYCVKSGSFSSAFWLEDWGQGTLVTVSS
VL: EIVLTQSPATLSLSPGERATLSCRASQSISNFVAWYQQKPGQAPRLLIYDASNGATGTPARFSGSGSGTDFTLTISSLEPEDFAVYYCQQRSTWTFGQGTKVEIKR
Take B1: the “PRNT IC50” value was found to be 1.1 µg/mL in experiment [1], 0.0083 µg/mL in experiment [2] and 0.0085 µg/mL in experiment [3].

B2: M3C06 (antibody, V domains shown)
VH: QVQLVQSGAEVKKPGSSVKVSCKAYGGTLSNYAISWVRQAPGQGLHWMGRIIPVMNVANYADNFQGRVTITADKSTSTAYMELSSLRSEDAAIYYCATARGLGSLEGGDAFDVWGQGTMLTVSS
VL: DIVMTQSPDSVAVSLGERATISCKSSLSLLYSSNNKNYLVWYQQKPGQPPKLLFYWASTRESGVPDRFSASGSGTDFTLTISSLQAEDVAVYYCQQYYSTPITFGQGTRLEIR
notes: IgG
Usually EC50 (read off the curve) stands for the concentration giving half of the maximal effect. High values mean weaker potency, low ones greater potency. On to B2, for which the “PRNT IC50” value in experiment [2] is greater than 10 µg/mL; in experiment [3] it was 0.0617 µg/mL. In experiment [4], the “EC50 (read off the curve)” value is roughly 0.009 µg/mL. Besides, the binding result in the experiment with N135T G139N Y233N is on record as “binds”; in the experiment with T143K it was “no binding (tested: about 3000 ng/mL)”.

B3: M2B6 (antibody, V domains shown)
VH: QVQLQESGPGLVKPSETLSLTCSVSGASIGGYYWGWIRQPPGKGLEWLGYIYYSGRTVYSPSLRGRLALSLDMSRQQLSLRLRSVAAADTAVYYCASLTITPGWFDSWGPGTLVTVSS
VL: QSVLTQPPSVSGAPGQRVTISCTGSSSNIGAGYDVHWYQQFPGSAPKLLIYGNTKRPSGVPDRFSGSTSGSSASLAITGLQTEDEAEYYCQSYERNLDGALFGGGTKLSVL
In the case of B3, the “PRNT IC50” value in experiment [1] amounted to 0.0092 µg/mL; in experiment [2], 0.044 µg/mL; in experiment [3], 0.0237 µg/mL.

B4: M1C7s (antibody, V domains shown)
VH: QVQLVQSGPEVRKPGSSVRVSCKASGGTFTRLTITWVRQAPGQGLEWMGRIIPAVDITNYAPKFQGRVTITADKSTGAVYMDLISLTSDDTAIYFCATVLDWSNALDIWGQGTMVTVSS
VL: DIVMTQTPLSLSVTPGQPASISCKSSESLLNSDGKTYLFWYLQKPGQSPQVLIYDLSSRFSGVPERFSGSGSGTDFTLKISRVEPEDVGIYYCMQGLHLPWTFGRGTRLEIKR
B4: the “PRNT IC50” value in experiment [2] is 0.015 µg/mL; in experiment [3], 0.0092 µg/mL.

B5: M4A10 (antibody, V domains shown)
VH: QVQLVQSGAEVKKPGASVKVSCKASGYTFNGHYLHWVRQAPGQGLEWMGWINPNSGGTDYAQRFQGRVTMTRGTSISTAYMELSRLTSDDTAVYFCARDNFGFWSASSGRHNWLDSWGQGTLVIVSS
VL: NFMLTQPHSVSESPGKTVTISCTRSTGNIASNYVQWYQQRPGSSPTTVIYEDNQRPSAVPDRFSGSIDSSSNSASLTVSGLRTEDEADYYCQSYDSGHHVVFGGGTKLTVL
notes: IgG
In the case of B5, the “PRNT IC50” value in experiment [2] is greater than 10 µg/mL; in experiment [3] it was 0.0301 µg/mL. Also, the “EC50 (read off the curve)” value in experiment [4] was roughly 0.006 µg/mL; with T143K, roughly 0.002 µg/mL. Besides, the binding result with N135T G139N Y233N is “binds”.

B6: M1D2 (antibody, V domains shown)
VH: QVQLQESGPGLVKPSGTLSLTCTVSGGSVNSDHWWTWVRQSPETGLEWIGELNHIGTFNYNPSFKSRATISIDTSKNQFSLTLTSVAAADTAVYYCARRPPPLPEYFYYYFMDVWGNGTTVTVSS
VL: DIQMTQSPSSLSASVGDRVTITCRTSQSIRGHINWYQQKPGKGPKLLIYGASSLQSGVPSRFSGSGSGTDFTLTISSLQAEDFATYYCQQSYSNPYSFGRGTKLEIKR
For the molecule B6, the “PRNT IC50” value in experiment [2] worked out at 0.0117 µg/mL; in experiment [3] it was 0.0124 µg/mL.

B7: M4B06 Fab (Fab, V domains shown)
VH: EVQLLESGGGFVQPGGSLRLSCVVTGFTFSNYAMCWVRQAPGKGPEWVSGIGGSVGTTYYADSVKGRFTISRDNSKNTLYLQMSGLRAEDTARYYCAKVPSFFVFEDGFDMWGQGTVVTVSS
VL: QSVLTQPPSASGNPGQRVTISCYGSGSNIGNNYVHWFRQLPGTAPRLLIYNTDILVPGVPDRFSGSESGTSASLAISGLQSGDEADYFCAAWDDTLNGYVFGPGTTVTVL
As to B7, the “IC50, hMPV plaque reduction neutralization” value in experiment [5] amounted to 0.076 µg/mL.
